Data: publication PMC9059122

How the values were obtained:
[1] = target: human melanocortin-5 receptor (human) (UniProt P33032)
[2] = target: human melanocortin-1 receptor (human) (UniProt Q01726)
[3] = target: human melanocortin-3 receptor (human) (UniProt P41968)
Sequence of human melanocortin-3 receptor (human) (P41968 whole entry): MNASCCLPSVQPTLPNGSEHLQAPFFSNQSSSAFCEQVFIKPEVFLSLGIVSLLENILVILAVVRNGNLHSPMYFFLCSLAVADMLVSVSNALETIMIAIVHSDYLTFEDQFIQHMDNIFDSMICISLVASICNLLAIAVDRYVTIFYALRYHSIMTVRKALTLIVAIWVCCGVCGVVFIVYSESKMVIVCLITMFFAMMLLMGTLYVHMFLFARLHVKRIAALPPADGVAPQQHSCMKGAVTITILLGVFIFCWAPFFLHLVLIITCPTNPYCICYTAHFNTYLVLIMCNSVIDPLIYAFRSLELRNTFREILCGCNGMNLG

Sequence of human melanocortin-5 receptor (human) (P33032 whole entry): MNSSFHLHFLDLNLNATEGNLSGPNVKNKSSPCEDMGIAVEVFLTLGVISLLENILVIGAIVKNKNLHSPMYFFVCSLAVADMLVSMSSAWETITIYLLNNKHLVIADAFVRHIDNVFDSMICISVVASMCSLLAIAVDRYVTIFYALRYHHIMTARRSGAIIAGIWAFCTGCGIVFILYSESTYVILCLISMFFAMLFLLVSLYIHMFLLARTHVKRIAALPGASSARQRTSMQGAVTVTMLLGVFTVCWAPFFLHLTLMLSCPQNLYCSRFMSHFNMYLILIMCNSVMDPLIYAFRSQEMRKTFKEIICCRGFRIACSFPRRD
Sequence of human melanocortin-1 receptor (human) (Q01726 whole entry): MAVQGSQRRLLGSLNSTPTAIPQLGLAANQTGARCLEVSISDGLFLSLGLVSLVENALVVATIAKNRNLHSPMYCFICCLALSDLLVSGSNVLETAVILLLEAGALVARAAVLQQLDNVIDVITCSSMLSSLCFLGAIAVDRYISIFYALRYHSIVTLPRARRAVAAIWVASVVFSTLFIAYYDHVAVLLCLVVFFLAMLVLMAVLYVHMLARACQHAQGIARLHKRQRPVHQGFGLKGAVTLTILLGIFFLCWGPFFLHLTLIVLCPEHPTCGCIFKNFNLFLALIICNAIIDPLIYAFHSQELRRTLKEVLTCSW

| agonist potency (EC50), cAMP split-luciferase sensor dynamic assay [1] [nM] | agonist potency (EC50), cAMP split-luciferase sensor dynamic assay [2] [nM] | agonist potency (EC50), cAMP split-luciferase sensor dynamic assay [3] [nM] | Substance |
| --- | --- | --- | --- |
| 4.1 | 1.2 | – | analogue 13 (Tyr-Val-Nle-Gly-Pro-D-Nal(2′)-Arg-Trp-Asp-Arg-Phe-Gly-NH2) (peptide) |
| 3.8 | 0.16 | 6.2 | analogue 11 (Tyr-Val-Nle-Gly-His-D-Nal(2′)-Arg-Trp-Asp-Arg-Phe-Gly-NH2) (peptide) |
